What was measured:
[1] = molecular target: T1, GPRC5D (G-protein coupled receptor family C group 5 member D), human, on multiple myeloma cell lines (human, UniProt Q9NZD1 1-345); assay: cell-based or functional assay
[2] = molecular target: T2, CD3 (Cluster of Differentiation 3 protein), human, on T cells / Jurkat cells (human, UniProt P07766 23-207; P04234 22-171; P09693 23-182); assay: FACS, Jurkat cells, antibody at 50 µg/ml
T2 construct: whole, on cells; part of the TCR-CD3 complex; also called human CD3
Experimental: The binding affinities of the generated humanized Fab-scFv-Fab bispecific antibodies were determined by FACS analysis. […] (a) Jurkat cells were washed by Staining Buffer (PBS+1% BSA) in round bottom 96-well plate. [0833] (b) Antibody dilutions and cells were added to each well, incubated at 4 degrees for 1 hour. [0834] (c) Cells were spined down at 300 g for 3 minutes, and the supernatants were discarded. [0835] (d) Cells were washed with Staining Buffer. […] (e) Step (d) was repeated and the cells were incubated for 0.5 hours at 4 degrees with secondary antibody in Staining Buffer. [0837] (f) After incubation, step (d)-(e) were repeated. […] (g) Staining Buffer was added and fluorescence signals were recorded by flow cytometry.

[3] = molecular target: T1, GPRC5D (G-protein coupled receptor …); assay: cell-based or functional assay; remark: listed apart in the source

T2 sequence (P07766 23-207, chain 1 of 3): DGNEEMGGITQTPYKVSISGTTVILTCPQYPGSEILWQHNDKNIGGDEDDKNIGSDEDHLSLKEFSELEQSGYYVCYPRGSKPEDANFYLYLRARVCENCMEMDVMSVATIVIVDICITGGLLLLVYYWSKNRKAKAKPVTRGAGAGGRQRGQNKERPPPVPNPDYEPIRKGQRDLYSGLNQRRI
T2 sequence (P04234 22-171, chain 2 of 3): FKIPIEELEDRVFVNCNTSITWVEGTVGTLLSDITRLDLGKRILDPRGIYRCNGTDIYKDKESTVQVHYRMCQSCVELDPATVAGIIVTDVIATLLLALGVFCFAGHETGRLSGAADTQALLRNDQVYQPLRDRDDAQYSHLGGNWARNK
T2 sequence (P09693 23-182, chain 3 of 3): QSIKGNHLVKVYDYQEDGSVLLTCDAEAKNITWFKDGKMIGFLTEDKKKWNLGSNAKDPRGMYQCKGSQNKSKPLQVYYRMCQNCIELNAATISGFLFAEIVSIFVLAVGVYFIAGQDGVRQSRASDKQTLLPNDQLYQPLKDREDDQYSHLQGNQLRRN
T1 sequence (Q9NZD1 whole entry): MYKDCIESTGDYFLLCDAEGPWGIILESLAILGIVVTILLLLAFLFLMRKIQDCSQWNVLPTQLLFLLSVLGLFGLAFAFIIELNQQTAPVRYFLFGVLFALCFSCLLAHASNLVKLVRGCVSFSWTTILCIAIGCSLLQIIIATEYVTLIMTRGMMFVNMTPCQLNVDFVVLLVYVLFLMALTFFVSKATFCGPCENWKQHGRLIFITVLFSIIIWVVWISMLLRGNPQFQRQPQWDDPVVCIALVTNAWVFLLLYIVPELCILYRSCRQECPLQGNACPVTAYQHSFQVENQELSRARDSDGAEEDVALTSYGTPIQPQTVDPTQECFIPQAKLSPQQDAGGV

Row | Binder | IC50 (nM), T-Cell Dependent Cytotoxicity, MM.1S [1] [nM] | IC50 (nM), T-Cell Dependent Cytotoxicity, MOLP-8 [1] [nM] | IC50 (nM), T-Cell Dependent Cytotoxicity, RPMI8226 [1] [nM] | Top (%), T-Cell Dependent Cytotoxicity, MM.1S [1] [%] | Top (%), T-Cell Dependent Cytotoxicity, MOLP-8 [1] [%] | Top (%), T-Cell Dependent Cytotoxicity, RPMI8226 [1] [%] | MFI (50 µg/ml) [2] [MFI] | EC50 (nM), luciferase assay, L363 [3] [nM] | EC50 (nM), luciferase assay, MM.1S [3] [nM] | EC50 (nM), luciferase assay, MOLP-8 [3] [nM] | EC50 (nM), luciferase assay, RPMI8226 [3] [nM] | Top (RLU), luciferase assay, L363 [3] [RLU] | Top (RLU), luciferase assay, MM.1S [3] [RLU] | Top (RLU), luciferase assay, MOLP-8 [3] [RLU] | Top (RLU), luciferase assay, RPMI8226 [3] [RLU]
1 | Bis-40E9-L2H3-D99E.H (bispecific antibody, Fab-scFv-Fab (2+1), LALA; not shown: CH1; CL; CH2-CH3 with L234A, L235A; heavy chain constant region with L234A, L235A) heavy: EVQLVQSGAEVKKPGASVKVSCKASGYTFTSYVIHWVRQAPGQGLEWMGYFNPYNDGTKYNEEFKGRVTLTSDKSTSTAYMELRSLRSDDTAVYYCARGGVRRYFDVWGQGTTVTVSS heavy (part 1 of 2): EVQLVQSGAEVKKPGASVKVSCKASGYTFTSYVIHWVRQAPGQGLEWMGYFNPYNDGTKYNEEFKGRVTLTSDKSTSTAYMELRSLRSDDTAVYYCARGGVRRYFDVWGQGTTVTVSS heavy (part 2 of 2): GGGGSGGGGSEVQLVQSGAEVKKPGSSVKVSCKASGYTFSSYVIHWVRQAPGQCLEWMGYINPYNDVIKYNEKFKGRVTLTSDKSTSTAYMELSSLRSEDTAVYYCARESYYSYDGFAYWGQGTLVTVSSGGGGSGGGGSGGGGSGGGGSEIVLTQSPDFQSVTPKEKVTITCSASSSVSYMHWYQQKPDQSPKRLIYDTSKLASGVPSRFSGSGSGTDFTLTINSLEAEDAATYYCQQWSSNPPTFGCGTKVEIKGGGGSGGGGS light: DIQMTQSPSSLSASVGDRVTITCRASQDIGSNLNWLQQKPGKAIKRLIYATFGLDSGVPSRFSGSRSGTDFTLTISSLQPEDFATYYCQQYASFPYTFGGGTKVEIK | 0.0244 | 0.00776 | 0.406 | 57.2 | 68.7 | 13.4 | 128 | 0.19 | 0.0719 | 0.906 | 0.878 | 584 | 1720 | 118 | 113
2 | Bis-40E9-L2H4 (bispecific antibody, Fab-scFv-Fab (2+1), LALA; not shown: CH1; CL; CH2-CH3 with L234A, L235A; heavy chain constant region with L234A, L235A) heavy: EVQLVQSGAEVKKPGASVKVSCKASGYTFTSYVIHWVRQAPGQGLEWMGYFNPYNDGTKYNEEFKGRVTLTSDKSTSTAYMELRSLRSDDTAVYYCARGGVRRYFDVWGQGTTVTVSS heavy (part 1 of 2): EVQLVQSGAEVKKPGASVKVSCKASGYTFTSYVIHWVRQAPGQGLEWMGYFNPYNDGTKYNEEFKGRVTLTSDKSTSTAYMELRSLRSDDTAVYYCARGGVRRYFDVWGQGTTVTVSS heavy (part 2 of 2): GGGGSGGGGSEVQLVQSGAEVKKPGSSVKVSCKASGYTFSSYVIHWVRQAPGQCLEWIGYINPYNDVIKYNEKFKGRATLTSDKSTSTAYMELSSLRSEDTAVYYCARDSYYSYDGFAYWGQGTLVTVSSGGGGSGGGGSGGGGSGGGGSEIVLTQSPDFQSVTPKEKVTITCSASSSVSYMHWYQQKPDQSPKRLIYDTSKLASGVPSRFSGSGSGTDFTLTINSLEAEDAATYYCQQWSSNPPTFGCGTKVEIKGGGGSGGGGS light: DIQMTQSPSSLSASVGDRVTITCRASQDIGSNLNWLQQKPGKAIKRLIYATFGLDSGVPSRFSGSRSGTDFTLTISSLQPEDFATYYCQQYASFPYTFGGGTKVEIK | 0.0125 | 0.00239 | 0.381 | 69 | 63.9 | 20.4 | 328 | 0.206 | 0.0592 | 0.000513 |  | 1430 | 1700 | 213 | 
3 | Bis-40E9-L3H1 (bispecific antibody, Fab-scFv-Fab (2+1), LALA; not shown: CH1; CL; CH2-CH3 with L234A, L235A; heavy chain constant region with L234A, L235A) heavy: EVQLVQSGAEVKKPGASVKVSCKASGYTFTSYVIHWVRQAPGQGLEWMGYFNPYNDGTKYNEEFKGRVTLTSDKSTSTAYMELRSLRSDDTAVYYCARGGVRRYFDVWGQGTTVTVSS heavy (part 1 of 2): EVQLVQSGAEVKKPGASVKVSCKASGYTFTSYVIHWVRQAPGQGLEWMGYFNPYNDGTKYNEEFKGRVTLTSDKSTSTAYMELRSLRSDDTAVYYCARGGVRRYFDVWGQGTTVTVSS heavy (part 2 of 2): GGGGSGGGGSEVQLVQSGAEVKKPGSSVKVSCKASGGTFSSYVIHWVRQAPGQCLEWMGYINPYNDVIKYNEKFKGRVTITADKSTSTAYMELSSLRSEDTAVYYCARDSYYSYDGFAYWGQGTLVTVSSGGGGSGGGGSGGGGSGGGGSEIVLTQSPDFQSVTPKEKVTITCSASSSVSYMHWYQQKPDQSPKRWIYDTSKLASGVPSRFSGSGSGTDYTLTINSLEAEDAATYYCQQWSSNPPTFGCGTKVEIKGGGGSGGGGS light: DIQMTQSPSSLSASVGDRVTITCRASQDIGSNLNWLQQKPGKAIKRLIYATFGLDSGVPSRFSGSRSGTDFTLTISSLQPEDFATYYCQQYASFPYTFGGGTKVEIK | 0.0203 | 0.00244 | 0.292 | 74.9 | 68.3 | 13.6 | 142 | 1.71 | 0.0332 | 0.072 |  | 2760 | 1710 | 150 | 
4 | Bis-40E9-L2H3-G106A.H (bispecific antibody, Fab-scFv-Fab (2+1), LALA; not shown: CH1; CL; CH2-CH3 with L234A, L235A; heavy chain constant region with L234A, L235A) heavy: EVQLVQSGAEVKKPGASVKVSCKASGYTFTSYVIHWVRQAPGQGLEWMGYFNPYNDGTKYNEEFKGRVTLTSDKSTSTAYMELRSLRSDDTAVYYCARGGVRRYFDVWGQGTTVTVSS heavy (part 1 of 2): EVQLVQSGAEVKKPGASVKVSCKASGYTFTSYVIHWVRQAPGQGLEWMGYFNPYNDGTKYNEEFKGRVTLTSDKSTSTAYMELRSLRSDDTAVYYCARGGVRRYFDVWGQGTTVTVSS heavy (part 2 of 2): GGGGSGGGGSEVQLVQSGAEVKKPGSSVKVSCKASGYTFSSYVIHWVRQAPGQCLEWMGYINPYNDVIKYNEKFKGRVTLTSDKSTSTAYMELSSLRSEDTAVYYCARDSYYSYDAFAYWGQGTLVTVSSGGGGSGGGGSGGGGSGGGGSEIVLTQSPDFQSVTPKEKVTITCSASSSVSYMHWYQQKPDQSPKRLIYDTSKLASGVPSRFSGSGSGTDFTLTINSLEAEDAATYYCQQWSSNPPTFGCGTKVEIKGGGGSGGGGS light: DIQMTQSPSSLSASVGDRVTITCRASQDIGSNLNWLQQKPGKAIKRLIYATFGLDSGVPSRFSGSRSGTDFTLTISSLQPEDFATYYCQQYASFPYTFGGGTKVEIK | 0.057 | 0.0068 | 4.04 | 67.4 | 54.3 | 5.69 | 114 | 0.187 | 0.268 | 0.116 | 1.58 | 277 | 2910 | 262 | 101

From US20260193348A1 (ANTENGENE BIOLOGICS, published 2026)
